Measured values: the supplement of paper PMC9170038

Tested on: MS2 coat protein
Test: apparent KD of MS2 coat protein; designed switch direction (-1 OFF switch, 1 ON switch): -1; higher = weaker reporter binding
In short: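 Three titration conditions were used: no input, 200 uM small-molecule ligand, and an oligonucleotide input. In each, SNAP-549-labelled MS2 coat protein was raised from 0.7 or 1.5 nM, doubling, to 3 µM over designed RNA switches transcribed on Illumina chips by stalled E. coli RNA polymerase. Curve fits of normalised cluster fluorescence gave values whose per-design median over clusters is the apparent KD.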

[1] = input ligand: microRNA oligo, concentration not stated
[2] = Eterna round: R95, input ligand: FMN 200 uM
[3] = Eterna round: R95, input ligand: microRNA oligo, concentration not stated
[4] = Eterna round: R95, input ligand: none

GGACAUAAAGUCAGGAUAUUAAGGCGAACAAGCGAUGAGAAGGGACAUGAGGAUCACCCAUGUGAUUCGCAUCA [Raerce] (Eterna round: R97, puzzle: Brourd's mod of Exclusion 4)
apparent KD of MS2 coat protein (input ligand: FMN 200 uM): 32.7 nM | apparent KD of MS2 coat protein (input ligand: none): 24.1 nM

AACCUACAUGAGGAUCACCCAUGUGAGGAUAUAUUGUUAUUUAUAAUAUUUUUUAGUGGUAGAAGGCGCGUGAU [JR_Exc1_Sub019] (Eterna round: R97, puzzle: Exclusion 1)
apparent KD of MS2 coat protein (input ligand: FMN 200 uM): 21 nM | apparent KD of MS2 coat protein (input ligand: none): 18.5 nM

GUAGAGUCAGGAUAUACAAGAUCGAAAGAUCAAAGGUCCAUACAUGAGGAUCACCCAUGUAGAAGGGACUCUAC [Eli x2 4.09] (Eterna round: R97, puzzle: Exclusion 2)
apparent KD of MS2 coat protein (input ligand: FMN 200 uM): 36.4 nM | apparent KD of MS2 coat protein (input ligand: none): 24.5 nM

GCCAGAGCAGGAUAUCUAUAUUAUCACAUGAGGAUCACCCAUGUCCAGCGAAAGCUGGAGGGAGAAGGGCUCUGGC [Fiskers Ex 5 - 26] (Eterna round: R96, puzzle: Exclusion 5)
apparent KD of MS2 coat protein (input ligand: FMN 200 uM): 51 nM | apparent KD of MS2 coat protein [1]: 60.9 nM | apparent KD of MS2 coat protein (input ligand: none): 104 nM

GAUUGACAUGAGGAUCACCCAUGUGAGGAUAUCGGCCGGACCGUGCUGGCUUCCGUCGCGAGAAGGCGCAUAGG [Exclusion 1 V41] (puzzle: Exclusion 1)
apparent KD of MS2 coat protein [2]: 78.2 nM | apparent KD of MS2 coat protein [3]: 35.5 nM | apparent KD of MS2 coat protein [4]: 38.9 nM

AAAGUCCUAGGAGGAUAUCACCUGCCUAGCACAUGAGAAGGCCUAGGAGACAUGAGGAUCACCCAUGUGUCCUUAGUCGAAAAU [Ensobedi] (Eterna round: R96, puzzle: Exclusion NG 1)
apparent KD of MS2 coat protein (input ligand: FMN 200 uM): 19.5 nM | apparent KD of MS2 coat protein [1]: 9.59 nM | apparent KD of MS2 coat protein (input ligand: none): 13.2 nM

GUCAGCUCGUCAGGAUAUACAUGAGGAUCACCCAUGUGGUCAAUAGCAGCUUCGGCUGCAAUAAUGUAGAAGGGACGAGCUGAC [ENG2/8-E] (Eterna round: R96, puzzle: Exclusion NG 2)
apparent KD of MS2 coat protein (input ligand: FMN 200 uM): 115 nM | apparent KD of MS2 coat protein [1]: 301 nM | apparent KD of MS2 coat protein (input ligand: none): 756 nM

CCGGAAAUACAGGAUAUAGGAGUAAAUAUACUCCUAGAAGGGUAUACAUGAGGAUCACCCAUGUGUCCUACCGG [Fiskers Ex 6 - 67] (puzzle: Exclusion 6)
apparent KD of MS2 coat protein [3]: 23.4 nM

UGGUAACAUGAGGAUCACCCAUGUCAGGAUAUCAGGAAGAAGAGAGGAGAGUAGAAGAUGAGAAGGGACUAUAU [Excluse me! 10 - Jieux - Exclusion 1] (puzzle: Exclusion 1)
apparent KD of MS2 coat protein [2]: 20.2 nM | apparent KD of MS2 coat protein [3]: 24.5 nM | apparent KD of MS2 coat protein [4]: 27.5 nM

GAACUCGUGAAGGAUAUCCGUACCAAAGCGGCAGGAGAAGGUCACACAUGAGGAUCACCCAUGUGGUACCUCGU [Xeinbira] (puzzle: Exclusion 6)
apparent KD of MS2 coat protein [2]: 80.1 nM | apparent KD of MS2 coat protein [3]: 27.4 nM | apparent KD of MS2 coat protein [4]: 25.1 nM

UGUGCGUAUGUGAGGAUAUGCUGGUCCUUGGAUCGGCAGAAGGCACAUGAGGAUCACCCAUGUGGUGUCGUACC [salish99_Bmod_ex4_075] (puzzle: Brourd's mod of Exclusion 4)
apparent KD of MS2 coat protein [3]: 154 nM

AAACUCCUGACAACCAGGAACAUGAGGAUCACCCAUGUGGCGUGACUCAUACGGGCUUUUUGUUCGUUUUAUUCACG [Aleatxe] (puzzle: Sensor v3, turn-off variant 1)
apparent KD of MS2 coat protein [2]: 41 nM | apparent KD of MS2 coat protein [3]: 26.6 nM | apparent KD of MS2 coat protein [4]: 51 nM

AGCGCCAUCGUGAGAUGGCGUAUUACAUGAGGAUCACCCAUGUAGGAUAUCGAUUGCUUUGCAGUCGAGAAGGGCAUGUCCUAG [JL ENG3 3.80 Mod H] (Eterna round: R96, puzzle: Exclusion NG 3)
apparent KD of MS2 coat protein [1]: 25 nM

UUUUAACAUGAGGAUCACCCAUGUGAGGAUAUCGAAAUUUAUAUUAAUAUUUUUAUAACGAGAAGGCACAUUUU [JMF 71] (puzzle: Exclusion 1)
apparent KD of MS2 coat protein [3]: 64.8 nM

GAAAAGGUAGGAUAUACGAAAAAAAAGGGUAGAAAAAAAACACAUGAGGAUCACCCAUGUAGAAGGACCAAAAG [Mat - Exclusion 2 - Tesla mod - D30] (Eterna round: R96, puzzle: Exclusion 2)
apparent KD of MS2 coat protein [1]: 25.3 nM

GCAAGCUUAAUCUGUAUGAACAUGAGGAUCACCCAUGUAUAAGGUAAUUCUUUUGGGUUUUUUAUUGCUCGUCUUAU [JR_STOV1_Sub025] (Eterna round: R97, puzzle: Sensor, turn-off variant 1)
apparent KD of MS2 coat protein (input ligand: FMN 200 uM): 189 nM | apparent KD of MS2 coat protein (input ligand: none): 210 nM

AAAGGAGUAGGAUAUGAGCCCAAAUACAUGAGGAUCACCCAUGUCGGGUUCAUGGAGGGCUUAGAAGGAUUUAAAA [Onreridi] (Eterna round: R97, puzzle: Exclusion 5)
apparent KD of MS2 coat protein (input ligand: FMN 200 uM): 25.8 nM | apparent KD of MS2 coat protein (input ligand: none): 23.1 nM

CAGUACUGAGGAUAUACAUGAGGAUCACCCAUGUGUUCCAGCUAGGAAACUAGCAAAAGUAGAAGGCAGUUCUG [salish99_ex3_r3_099x] (puzzle: Exclusion 3)
apparent KD of MS2 coat protein [3]: 19.3 nM

AACCUGAGGCUUUGCUUUAGGUUUACAUGAGGAUCACCCAUGUAGGAUAUGGUAGGCUUUGCUUACCAGAAGGACAUGAUAAUU [Mat - Exclusion NG 3 - Mod of JL - D27] (Eterna round: R96, puzzle: Exclusion NG 3)
apparent KD of MS2 coat protein (input ligand: FMN 200 uM): 215 nM | apparent KD of MS2 coat protein [1]: 33 nM | apparent KD of MS2 coat protein (input ligand: none): 43.8 nM

ACAACAAGCUUUUUGUUCGUAGAACAUGAUGCUCUAGUCACAUGAGGAUCACCCAUGUCAACUAGAUAGAUAGUUGA [JR_SV3TOV2_Sub062] (puzzle: Sensor v3, turn-off variant 2)
apparent KD of MS2 coat protein [2]: 43 nM | apparent KD of MS2 coat protein [3]: 95.7 nM | apparent KD of MS2 coat protein [4]: 44.1 nM

GCAAGCUUUUUCAAUAAGAACAUGAGGAUCACCCAUGUUUAAGGUAUUACUUUUGGGCUCUUUAGUGCUCGUCUUAU [JR_STOV1_Sub035] (Eterna round: R97, puzzle: Sensor, turn-off variant 1)
apparent KD of MS2 coat protein (input ligand: FMN 200 uM): 17.9 nM | apparent KD of MS2 coat protein (input ligand: none): 18.2 nM

GGUGAGCUAGGAUAUGCUUUGGGCUCGCUUUCCUUCGUUUUACUUGAGGAUCACCCAAGUAGAAGGAGCUUGCC [salish99_ex2_r4_036] (Eterna round: R97, puzzle: Exclusion 2)
apparent KD of MS2 coat protein (input ligand: FMN 200 uM): 13.9 nM | apparent KD of MS2 coat protein (input ligand: none): 12.2 nM

AGUACUAACACGUCGGUGUUAGUACAAUAAGCUUGUGAAACAUGAGGAUCACCCAUGUCCUCAUAAGCUCGUCUUAU [salish99_TOv2_r3_080] (puzzle: Sensor v3, turn-off variant 2)
apparent KD of MS2 coat protein [2]: 17.4 nM | apparent KD of MS2 coat protein [3]: 575 nM | apparent KD of MS2 coat protein [4]: 15.5 nM

AUUUACAAGCUAAGAUCCUACAUGAGGAUCACCCAUGUGGUCCGGUGACGUGAGUCACCGGACUUAGCUCGUCUUGC [salish99_S_TOV1_R5_084] (Eterna round: R97, puzzle: Sensor, turn-off variant 1)
apparent KD of MS2 coat protein (input ligand: FMN 200 uM): 37.2 nM | apparent KD of MS2 coat protein (input ligand: none): 38.1 nM

CCUCAACAUGAGGAUCACCCAUGUCAGGAUAUGCGAAUUUCAUCAAAAGAUGAAAUUUGCAGAAGGGACUAAGC [Omei Ex1 A33] (Eterna round: R97, puzzle: Exclusion 1)
apparent KD of MS2 coat protein (input ligand: FMN 200 uM): 303 nM | apparent KD of MS2 coat protein (input ligand: none): 133 nM

AAGCCCUGAGGAUAUCCUUACUCGCACAUGAGGAUCACCCAUGUCCUCCUCCGGGCUUCGGGAGAAGGCAGGUCUC [Megrez-7.7] (Eterna round: R97, puzzle: Exclusion 5)
apparent KD of MS2 coat protein (input ligand: FMN 200 uM): 40.1 nM | apparent KD of MS2 coat protein (input ligand: none): 56.6 nM
